Residue numbers refer to the chain shown, from its start.

T1: RAMP2 Scr V1
T1 construct: it is not part of the secreted protein; Expressed in HEK cells
T1 chain: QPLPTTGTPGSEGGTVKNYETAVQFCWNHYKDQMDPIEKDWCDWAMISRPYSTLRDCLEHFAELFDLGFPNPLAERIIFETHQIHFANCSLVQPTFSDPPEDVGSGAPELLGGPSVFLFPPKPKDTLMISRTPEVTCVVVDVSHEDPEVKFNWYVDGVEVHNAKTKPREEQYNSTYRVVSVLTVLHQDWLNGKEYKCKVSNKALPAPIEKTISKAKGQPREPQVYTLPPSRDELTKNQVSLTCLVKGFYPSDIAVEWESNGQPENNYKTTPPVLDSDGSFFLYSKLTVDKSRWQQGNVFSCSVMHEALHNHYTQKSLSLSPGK

T2: RAMP3_Scr_V1
T2 construct: Expressed in HEK cells
T2 chain: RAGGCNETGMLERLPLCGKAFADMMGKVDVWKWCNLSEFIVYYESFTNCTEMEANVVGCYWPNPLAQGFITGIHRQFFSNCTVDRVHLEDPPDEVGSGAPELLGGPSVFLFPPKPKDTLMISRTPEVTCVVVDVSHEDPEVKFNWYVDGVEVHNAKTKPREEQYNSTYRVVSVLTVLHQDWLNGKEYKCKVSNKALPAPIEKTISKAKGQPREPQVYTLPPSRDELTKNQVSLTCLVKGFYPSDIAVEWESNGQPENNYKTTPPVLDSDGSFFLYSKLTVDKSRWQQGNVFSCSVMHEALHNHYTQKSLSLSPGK

T3: RAMP2 IMM ECD V1
T3 construct: The entry includes a signal peptide whose residues cannot be read (drawing); The text says 'RAMP2 ECD'; also called RAMP2 ECD
T3 chain: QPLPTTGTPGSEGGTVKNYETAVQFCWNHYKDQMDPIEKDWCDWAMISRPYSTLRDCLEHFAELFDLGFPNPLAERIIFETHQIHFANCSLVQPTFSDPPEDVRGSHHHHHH

B1: RAMP2-rIgG-k1-2A8 (antibody, V domains shown)
VH: QSLEESGGGLVQPEGSLTLTCTASGFDLSRYYYIFWVRQAPGKGLEWIGCIYIGGNIITYYASWAKGRFTISKTSSPAVTLQMTSLTVADTATYFCARGTGYGGYGDVSLWGPGTLVTVSS
VL: APVLTHTAASVSEPVGGIVTINCQASQSIGSNLAWYQQKSGQPPKLLIYDASNLVSGVPSRFKGSRSGTEYTLTISDLECADAGTYYCQGYYYGSSTSYNLVSFGGGTEVVVK
notes: tested as recombinant rabbit IgG-kappa1; also called rlgG-k1-2A8; 2A8_#12
B2: RAMP2-rIgG-k1-1H6#4 (antibody, V domains shown)
VH: QEHLVESEGGLFKPTDTLTLTCTVSGFSLSSYGVSWVRQAPGKGLEWIGVIGATGSAYYANWAKSRSTITRNTNLNTVTLKVTSLTAADTATYFCARDDVLTGMDLWGPGTLVTVSS
VL: APVLTQTPASVEAAVGGTVTIKCQASQSINSWLSWYQQKPGQPPKLLIYQASKLASGVPSRFKGSGSGTEYTLTISDLKCADAATYYCQSYDYASNSGYVSNPFGGGTEVVVK
notes: tested as recombinant rabbit IgG-kappa1; also called rlgG-k1-1H6
B3: RAMP2-rIgG-k1-1H7 (antibody, V domains shown)
VH: QSLEESGGDLVKPEGSLTLTCTASGFSFSISYWICWVRQTPGKGLEWIGCIYGGSSGRPYYASWAKGRFTISKTSSTTVTLQMTSLTAADTAAYFCATTAYGGYGYGTWGPGTLVTVSS
VL: AAVLTQTPSSTSGPVGGTVTIKCQASQNIGSFLSWYQQKPGQPPKLLIYSASSLATGVPSRFSGSGSGTQFTLTISGVQCDDAATYYCLGFYAYRSDDGTAFGGGTEVVVK
notes: tested as recombinant rabbit IgG-kappa1; also called rlgG-k1-1H7; 1H7_#5
B4: RAMP2-rIgG-k1-1A10 (antibody, V domains shown)
VH: QSLEESGGGLVQPEGSLTLTCTASGFSFSSSYYMCWVRQAPGKGLEWIGSIYTLSGSTAYASWAKGRFTISKTSSTTVTLQMTSLTAADTAMYFCARDSDGWGVSFNLWGPGTLVTVSS
VL: AAVMTQTPSSLSAAVGGTVTIKCQASQSIRNQVSWYQQKPGQRPKLLIYRASTLESGVPSRFKGSGSGTDFTLTISDLECADAATYYCQCTYGSSSSNRYGNTFGGGTEVAVK
notes: tested as recombinant rabbit IgG-kappa1; also called rlgG-k1-1A10; 1A10_#7
B5: RAMP2-rIgG-k1-2A6 (antibody, V domains shown)
VH: QSVEESGGDLVKPGASLTLTCTASGFSFSSRYYMCWVRQAPGKGLEWIGCIFGGSSGNTHYASWAKGRFTIAKTSSTTVTLRMTSLTAADTATYSCVRSDAWGVNLWGPGTLVTVSS
VL: DVVMTQTPASVEAAVGGTVTIKCQASQSISNLLAWYQQKPGQPPKRLIYGASNLESGVPSRFKGSGSGTQFTLTISDLECADAATYYCQCSYDGSSPNAFGGGTEVVVE
notes: tested as recombinant rabbit IgG-kappa1; also called rlgG-k1-2A6; 2A6_#9
B6: RAMP2-rIgG-k1-2H3 (antibody, V domains shown)
VH: B5 VH with G49A, G57D, T59S, H60Y, S63R, A72S, S95F
VL: AAVMTQTPSPVSGVVGGTVTIKCQASQSIYGYFSWYQQKPGQPPKLLIYSASDLASGVPSRFKGSGSGTQFTLTISDLECADAATYYCQCSYDGSSPNAFGGGTEVVVK
notes: tested as recombinant rabbit IgG-kappa1; also called rlgG-k1-2H3; 2H3_#13
B7: RAMP2-rIgG-k1-1A7#1 (antibody, V domains shown)
VH: B3 VH with L3V
VL: DGVMTQTPSSVSAAVGSTVTISCQASQSVFSNNYLSWYQQKPGQPPKLLIYTASSLASGVPSRFKGSGSGTQFTLTISDLECADAATYYCQCTYGKSGTDTYLNAFGGGTEVVVK
notes: tested as recombinant rabbit IgG-kappa1 made in CHOEBNALT85-1E9 cells (supernatant); also called rlgG-k1-1A7
B8: RAMP3-rIgG-k1-6C2 (antibody, V domains shown)
VH: QEQLEESEGGLFKPTDTLTLTCTVSGFSLSVYALTWVRQAPGNGLEWIGAIGNSGNTYYASWAKSRSTITRNTNENTVTLKMTSLTAADTATYFCARGYVRINVWGPGTLVTVSS
VL: DGVMTQTPSSVSAAVGGTVTISCQSSQSVYKNNYLSWFQQKPGQPPKLLIYEISKLESGVPDRFSGSGSGTQFTLTISGVQCDDAATYYCLGGYDDDSDTSFGGGTEVVVK
notes: tested as recombinant rabbit IgG-kappa1; also called rlgG-k1-6C2; 6C2_#25
B9: RAMP3-rIgG-k1-6B8 (antibody, V domains shown)
VH: QSLEESGGGLVKPEGSLTLTCTASGFFFDRSYWICWVRQTPAKGLEWIACIVVSSGATYYASWAKGRLTLSKTSSTTVTLQMTSLTAADTAIYFCARDSSSTSGVEFNLWGPGTLVTVSS
VL: DVMMTQTPASVSEPVGGTVTIKCQASQNIGNNLAWYQQKPGQPPKLLIYLTSTLASGVPSRFKGSRSGTEFTLTISDLECADAATYFCQSYLYTTYAFGGGTEVVVK
notes: tested as recombinant rabbit IgG-kappa1; also called rlgG-k1-6B8; 6B8_#24
B10: RAMP3-rIgG-k1-6D8 (antibody, V domains shown)
VH: QSVEESGGDLVRPEGSLTLTCTASGFSLSSSYWICWVRQAPGKGLEWIACIVSNTGTTYYASWAKGRLTLSKTSSTTVTLQMTSLTAADTATYFCARDNNSKSGVEFNLWGPGTLVTVSS
VL: B9 VL with M3V, Q42H, T51A, F87Y
notes: tested as recombinant rabbit IgG-kappa1; also called rlgG-k1-6D8; 6D8_#28
B11: RAMP3-rIgG-k1-5H9 (antibody, V domains shown)
VH: QSLEESEGGLFKPTDTLTVTCIVSGLSLSRNAMSWVRQAPGSGLEWIGVIVTYGDTYYASWAKSRSTITRNTNENTVTLKMTSLTAADTATYFCIGGLDIWGPGTLVTVSS
VL: DVVMTQTPASVEAAVGGTVTIKCQATESIASWLAWYQQKAGQPPKLLIYEASKLESGVPSRFKGSGSGTEFTLTISDLECADAATYYCQSYLYSSSNTYGNSFGGGTEVVVK
notes: tested as recombinant rabbit IgG-kappa1; also called rlgG-k1-5H9; H9_#22
B12: RAMP3-rIgG-k1-4C10 (antibody, V domains shown)
VH: QEQLEESGGGLVKPTDTLTLTCTVSGFSLSTNSIFWVRQAPGNGLEWIGAISYAGGTAYASWAKSRSTITRNTNLNTVTLKMTSLTAADTATYFCGRGYVGYSRSKGDIWGPGTLVTVSS
VL: DGVMTQTPSSTSAAVGSTVTISCQSTQSIINNNWLAWYQQKPGHSPKLLIYDASTLASGVPSRFSGSGSGTQFTLTISDLECDDAATYYCAARYSGDIYTFGGGTEVVVR
notes: tested as recombinant rabbit IgG-kappa1; also called rlgG-k1-4C10; 4C10_#19
B13: RAMP3-rIgG-k1-3A5 (antibody, V domains shown)
VH: QSLEESGGGLVQPEGTLTLTCTVSGFSFSSNYWICWVRQAPGKGLEWIACIVTNSGTTYYTSWAKGRLTLSKTSSTTVTLQMTSLTAADTATYFCARDNNSVTGVEFNLWGPGTLVTVSS
VL: DVVMTQTPASVSAAVGATVTIKCQASETIGNNLAWYQQKPGQPPKVLMFLASTLASGVPSRFKGSRSGTEYTLTISGVQCDDAATYYCQSYLGTSYAFGGGTEVVVK
notes: tested as recombinant rabbit IgG-kappa1; also called rlgG-k1-3A5; 3A5_#15
B14: RAMP3-rIgG-k1-3A12 (antibody, V domains shown)
VH: QEQLEESEGGLFKPTDTLTLTCTVSGFSLSSYGVSWVRQAPGNGLEYIGFIGKTGSAYYASWAKSRSTITRNTTLNTVTLKMTSLTVADTATYFCARLGPGSIYYFDIWGPGTLVTVSS
VL: DPMLTQTPSSKSVPVGGTVTINCQSSESVYDNNWLAWFQQKPGQPPKRLIYSASTLASGVSSRFKGSGSGTQFTLTISDVQCDDAATYYCTGYKSRTTDEIAFGGGTEVVVK
notes: tested as recombinant rabbit IgG-kappa1; also called rlgG-k1-3A12; 3A12_#17

In one assay the target is T1, RAMP2 Scr V1. Nature of the assay: ELISA, 24-well supernatants on coated antigen. The procedure:
(§1) Amplified VH and VL were purified and altogether 20 cloning reactions per target were performed for cloning into rabbit IgG-κ1 encoding two-cassette expression plasmid by using Ligase Independent Cloning (LIC) method. Resulting antibody library pools were grown in E. coli strain DH5a. Plasmid DNA was purified and transfected into CHOEBNALT85-1E9 cells for transient production of antibodies in serum-free media for 48 hours in 24-well format. Cell culture supernatants were tested for RAMP2 Scr and RAMP2 ECD or RAMP3 Scr binding in ELISA (wells coated at 1 μg/ml in PBS).
As for B1, the binding result is “binds”.
Same read-out and setting: the value for B2 was “binds”; that for B3 was “binds”.
Same read-out and setting: the value for B4 was “binds”; that for B5 was “binds”; that for B6 was “binds”.

For a further assay, the target named is T1, RAMP2 Scr V1. The assay can be described thus: ELISA, single-clone supernatants on RAMP2 Scr. The procedure:
(§2) 8 specific ELISA positive pools against both targets were selected for single clone isolation. Single clones were selected in LB-Amp solid medium, colonies were grown in liquid medium o/n on shaker at 37° C. in 96-well microtiter plates (2-4 96-well plates per target), plasmid DNA was isolated and transfected into CHOEBNALT85-1E9 cells for antibody transient production. 48-72 hours after transfection supernatants were analyzed by ELISA on RAMP2 Scr or RAMP3 Scr respectively.
On the technique in general: ELISA stands for enzyme-linked immunosorbent assay.
For B7, the binding result was “binds”.

In the next assay the target is T2, RAMP3_Scr_V1. The assay can be described thus: ELISA, single-clone supernatants on RAMP3 Scr. The method, then:
as §2
B8: the binding result is given as “binds”.
Turning to B9, the binding result is “binds”.
On the same count and under the same terms, the value for B10 was “binds”.
On to B11, for which the binding result was “binds”.
On the same count and under the same terms, as for B12, the entry is “binds”.

The target in a further assay is T2, RAMP3_Scr_V1. The assay can be described thus: ELISA, 24-well supernatants on coated RAMP3 Scr. The method, then:
as §1
For B13, the binding result is “binds”.
On the same count and under the same terms, as for B14, the entry is “binds”.

For the next assay, the target named is T3, RAMP2 IMM ECD V1. The assay can be described thus: direct ELISA, 6-well supernatants at 8-500 ng/ml on RAMP2 ECD coated at 1.0 µg/ml. The method, then:
Immuno modules (Thermo Scientific™) were coated with RAMP2 ECD or RAMP3 Scr, 1.0 μg/ml in PBS, 100 μl/well, 20 h at 4° C. Supernatants of anti-RAMP2 and anti-RAMP3 rabbit IgG-κ1 antibody clones were transfered into wells at different concentrations (8-500 ng/ml; 100 μL/well, in PBS-0.05% Tween 20-1% BSA) and the plates were incubated for 60 min. on a shaker at room temperature (RT). Goat anti-rabbit-IgG HRP conjugate (Invitrogen; 1:20 000 in 1% BSA-PBS-0.05% Tween 20; 100 μL/well) was used as secondary reagent in direct ELISA (incubation time 60 min. at RT). To visualize, TMB substrate was added for 10 min. and stopped with 0.5 M H₂SO₄. Between every incubation step the wells were washed 4 times with PBS-Tween 20.
For B1, the titer is less than 8 ng/mL.
Still for that read-out and setting: as for B2, the figure is less than 8 ng/mL.
Consider B7, for which the titer is less than 8 ng/mL.
The molecule B3 came in with a titer of less than 8 ng/mL.
The same measure, in the same setting: the value for B4 was less than 8 ng/mL; that for B5 was less than 8 ng/mL; that for B6 was less than 8 ng/mL.
